Measurements as given in the supplement of paper PMC10567573.

B1: VPS39 (parent)
chain: LRLENNHCHIEESEHVLKKAHKYS

Variants of: B1
Assay: protein stability index of a GFP-peptide fusion (GPS, HEK-293T) (PSI 1-6); higher = more stable
Settings: c terminus: a fixed tail appended
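Further: lentivirally expressed fusions sorted by FACS into six bins by GFP to DsRed ratio, PSI derived from sequencing read proportions per bin multiplied by bin number.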

Variant	protein stability index
LRLVNNHCHIEESEHVLKKAHKYS [E4V]	2.71
LRLRNNHCHIEESEHVLKKAHKYS [E4R]	3.45
LRLMNNHCHIEESEHVLKKAHKYS [E4M]	2.65
LRLFNNHCHIEESEHVLKKAHKYS [E4F]	2.54
LRLINNHCHIEESEHVLKKAHKYS [E4I]	2.17
LRLWNNHCHIEESEHVLKKAHKYS [E4W]	2.44
LRLYNNHCHIEESEHVLKKAHKYS [E4Y]	2.53
LRLQNNHCHIEESEHVLKKAHKYS [E4Q]	2.92
LRLTNNHCHIEESEHVLKKAHKYS [E4T]	2.56
LRLENNSCHIEESEHVLKKAHKYS [H7S]	2.04
LRLENNWCHIEESEHVLKKAHKYS [H7W]	2.17
LRLENNLCHIEESEHVLKKAHKYS [H7L]	2.32
LRLENNDCHIEESEHVLKKAHKYS [H7D]	2
LRLENNVCHIEESEHVLKKAHKYS [H7V]	2.35
LRLENNECHIEESEHVLKKAHKYS [H7E]	2.38
LRLENNFCHIEESEHVLKKAHKYS [H7F]	2.03
LRLENNTCHIEESEHVLKKAHKYS [H7T]	2.88
LRLENNCCHIEESEHVLKKAHKYS [H7C]	2.15
LRLENNGCHIEESEHVLKKAHKYS [H7G]	1.97
LRLENNPCHIEESEHVLKKAHKYS [H7P]	3.01
LRLENNYCHIEESEHVLKKAHKYS [H7Y]	2.79
LRLENNRCHIEESEHVLKKAHKYS [H7R]	2.9
LRLENNQCHIEESEHVLKKAHKYS [H7Q]	2.34
LRLENNMCHIEESEHVLKKAHKYS [H7M]	2.46

Variant	protein stability index
LRLENNACHIEESEHVLKKAHKYS [H7A]	2.79
LRLENNKCHIEESEHVLKKAHKYS [H7K]	2.84
LRLENNNCHIEESEHVLKKAHKYS [H7N]	3.37
LRLENNICHIEESEHVLKKAHKYS [H7I]	2.15
LRLENNHCMIEESEHVLKKAHKYS [H9M]	2.42
LRLENNHCRIEESEHVLKKAHKYS [H9R]	2.83
LRLENNHCVIEESEHVLKKAHKYS [H9V]	2.4
LRLENNHCSIEESEHVLKKAHKYS [H9S]	3.23
LRLENNHCQIEESEHVLKKAHKYS [H9Q]	2.57
LRLENNHCCIEESEHVLKKAHKYS [H9C]	2.86
LRLENNHCPIEESEHVLKKAHKYS [H9P]	1.8
LRLENNHCNIEESEHVLKKAHKYS [H9N]	2.27
LRLENNHCTIEESEHVLKKAHKYS [H9T]	3.29
LRLENNHCYIEESEHVLKKAHKYS [H9Y]	1.92
LRLENNHCLIEESEHVLKKAHKYS [H9L]	1.84
LRLENNHCEIEESEHVLKKAHKYS [H9E]	1.59
LRLENNHCWIEESEHVLKKAHKYS [H9W]	2.18
LRLENNHCAIEESEHVLKKAHKYS [H9A]	2.2
LRLENNHCKIEESEHVLKKAHKYS [H9K]	3.59
LRLENNHCDIEESEHVLKKAHKYS [H9D]	2.68
LRLENNHCIIEESEHVLKKAHKYS [H9I]	2.19
LRLENNHCGIEESEHVLKKAHKYS [H9G]	2.7
LRLENNHCFIEESEHVLKKAHKYS [H9F]	1.92
LRLENNHCHREESEHVLKKAHKYS [I10R]	3.01

Variant	protein stability index
LRLENNHCHKEESEHVLKKAHKYS [I10K]	3.33
LRLENNHCHHEESEHVLKKAHKYS [I10H]	3.17
LRLENNHCHCEESEHVLKKAHKYS [I10C]	3.18
LRLENNHCHSEESEHVLKKAHKYS [I10S]	3.33
LRLENNHCHEEESEHVLKKAHKYS [I10E]	3.08
LRLENNHCHDEESEHVLKKAHKYS [I10D]	3.53
LRLENNHCHPEESEHVLKKAHKYS [I10P]	3.1
LRLENNHCHQEESEHVLKKAHKYS [I10Q]	3
LRLENNHCHAEESEHVLKKAHKYS [I10A]	3.75
LRLENNHCHNEESEHVLKKAHKYS [I10N]	2.73
LRLENNHCHMEESEHVLKKAHKYS [I10M]	2.34
LRLENNHCHYEESEHVLKKAHKYS [I10Y]	2.57
LRLENNHCHWEESEHVLKKAHKYS [I10W]	2.43
LRLENNHCHLEESEHVLKKAHKYS [I10L]	1.9
LRLENNHCHTEESEHVLKKAHKYS [I10T]	3.02
LRLENNHCHFEESEHVLKKAHKYS [I10F]	2.11
LRLENNHCHGEESEHVLKKAHKYS [I10G]	2.74
LRLENNHCHVEESEHVLKKAHKYS [I10V]	2.68
LRLENNHNHIEESEHVLKKAHKYS [C8N]	2.38
LRLENNHWHIEESEHVLKKAHKYS [C8W]	2.4
LRLENNHVHIEESEHVLKKAHKYS [C8V]	1.88
LRLENNHGHIEESEHVLKKAHKYS [C8G]	2.27
LRLENNHRHIEESEHVLKKAHKYS [C8R]	2.95
LRLENNHTHIEESEHVLKKAHKYS [C8T]	3.19

Variant	protein stability index
LRLENNHHHIEESEHVLKKAHKYS [C8H]	3.03
LRLENNHIHIEESEHVLKKAHKYS [C8I]	2.15
LRLENNHPHIEESEHVLKKAHKYS [C8P]	2.53
LRLENNHFHIEESEHVLKKAHKYS [C8F]	2.29
LRLENNHYHIEESEHVLKKAHKYS [C8Y]	1.86
LRLENNHAHIEESEHVLKKAHKYS [C8A]	3.17
LRLENNHKHIEESEHVLKKAHKYS [C8K]	3.3
LRLENNHMHIEESEHVLKKAHKYS [C8M]	2.43
LRLENNHEHIEESEHVLKKAHKYS [C8E]	2.35
LRLENNHDHIEESEHVLKKAHKYS [C8D]	3.58
LRLENNHLHIEESEHVLKKAHKYS [C8L]	2.47
LRLENNHSHIEESEHVLKKAHKYS [C8S]	2.88
LRLENNHQHIEESEHVLKKAHKYS [C8Q]	2.27
QRLENNHCHIEESEHVLKKAHKYS [L1Q]	4.08
RRLENNHCHIEESEHVLKKAHKYS [L1R]	3.48
SRLENNHCHIEESEHVLKKAHKYS [L1S]	4.19
TRLENNHCHIEESEHVLKKAHKYS [L1T]	4.32
YRLENNHCHIEESEHVLKKAHKYS [L1Y]	4.1
NRLENNHCHIEESEHVLKKAHKYS [L1N]	3.65
WRLENNHCHIEESEHVLKKAHKYS [L1W]	3.14
VRLENNHCHIEESEHVLKKAHKYS [L1V]	2.29
PRLENNHCHIEESEHVLKKAHKYS [L1P]	3.79
